Our source for the affinity of the first binding event and affinity of the second binding event values is paper PMC9303947.

The target in the test is Myo1^IQ12-FRET protein (CyPet and YPet separated by both Myo1 IQ motifs) (S. pombe). The test is described as follows: FRET or BRET; Cam1 or ^ACECam1 titrated into 0.5 µM Myo1^IQ12-FRET protein in solution, absence of calcium; % change in donor CyPet fluorescence (excitation 435 nm); 140 mM KCl, 2 mM MgCl2, 20 mM MOPS pH 7.0, 2 mM EGTA; two binding events fitted.

Turning to “Cam1 (unacetylated Schizosaccharomyces pombe calmodulin) (from UniProt P05933 1-150) (natural protein)”, the affinity of the first binding event is under 0.1 µM and the affinity of the second binding event amounted to 1.47 µM.

As for “^ACECam1 (amino-terminally acetylated Schizosaccharomyces pombe calmodulin) (from UniProt P05933 1-150) (natural protein)”, the affinity of the first binding event is under 0.1 µM and the affinity of the second binding event was 0.68 µM.
